Assay: soluble on expression in E. coli; label from the status in PepcDB or PDB records

Row | Sequence | soluble on expression in E. coli
1 | MFKHIISCLLLISATSALAAEKPTLTVYTYDSFAADWGPGPAIKQAFEAECDCQLKFVALEDGVSLLNRLRMEGKNSQADVILGLDNNLVQAAEQTGLFTPSQVDTRNLTLPEPWQNKTFVPYDYGYFAFVYNKEKLKNPPKSLHELISSKEPWKVIYQDPRTSTPGLGLMLWMQKVYGDQAPQAWQQLAQKTVTVTKGWSEAYGLFLKGEADLVLSYTTSPAYHLIAEKNNNYAAADFSEGHYLQVEVAGQLAASKQPELAQRFMQFIVTPAFQNHIPTGNWMYPVIKMDLPAGFETLAVPQTALQFDAKDVADNRSKWIQAWQSAVSR | not soluble
2 | MGHHHHHHSHMEHPLEMPICAFQLPDLTVYNEDFRSFIERDLIEQSMLVALEQAGRLNWWVSVDPTSQRLLPLATTGDGNCLLHAASLGMWGFHDRDLMLRKALYALMEKGVEKEALKRRWRWQQTQQNKESGLVYTEDEWQKEWNELIKLASSEPRMHLGTNGANCGGVESSEEPVYESLEEFHVFVLAHVLRRPIVVVADTMLRDSGGEAFAPIPFGGIYLPLEVPASQCHRSPLVLAYDQAHFSALVSMEQKENTKEQAVIPLTDSEYKLLPLHFAVDPGKGWEWGKDDSDNVRLASVILSLEVKLHLLHSYMNVKWIPLSS | soluble
3 | MAHHHHHHMSSCKDSLSLMAMWGSIARFDPKHERSFEGPEKRLEVIMRVVDGTHVSGLLAHDDDVWQKVIDAICAHIVSREFNEYIRSYVLSESSLFVMKDRVILITCGTITLLNCVPLICEAVSTVCGEVEWVSFMHKNYSFPWEQKGPHLSMAEEFKTLRSHFPSGQPFIFGPIDSDHYFLYFHSDVVQPSCSDDAQLSMTMYGLDRNQTKHWYSDKMLPTGPETAVIREATGLSEVVDDSWILHDLQYEPCGYSINAIRGSEYQTIHITPEEHCSFASYETNTCALNYSKCICGVLRVFDPERFSVIVFIDPDSAVGKSYHSGGTIGVEPEYYPNYEAHHRTVNEYTPGHWVLKVNYVKRAVGTVGTSAASGAKE | not soluble
4 | MKKLMLGNEAVARGAYEAGVLVATAYPGTPSTEITEYISKYSEINSEWSVNEKVALEVGIGSAIAGARTIVSMKHVGLNVAADPLMTVAYTGINAGLLIVVADDPSMHSSQNEQDTRYYGMFAKIPVLEPSDSQECKDFVKLGFEISEKFDTPVILRLSTRVSHSQSLVELEEKESIELKPYD | not soluble
5 | MGSDKIHHHHHHMRVAPAYGKIALLISVSFSHGRHSVQDKNFDALAGKFAKNIYGTPKGEVRAAVLWRDISQAMTQLPEGPLRILDAGGGFGFFSQKLAKLGHSVTLCDISSEMLALGQAQITEYENNSGEKLDITLLHAPIQSLTREELGQFDLILCHAVAEWLSDAKQTLAGLTQLLKPQGLFSLMFYNKEAMRFHSLISGNFDYVAADFKVKKKVGLTPSYPLYIDDVRGWVSDWQMELVTASGVRVIHDYLKTHQPPNSDFSQLLEMELQYSTHPAYIGLGRYVHFITRWQR | not soluble
6 | MSLGKISFPVGVLFSGSGSYAQPARQGFRGAMTAIAHINASRRFPFNLQAHHFDPAGEADRYASLCRQLIRERDVRHVVGCTTSWSRKEAIPVVEKLDALLWYPCVYEGFEVSENLIYVAACANQHLVPLLDYIAPRFGSRAMLVGANYIWGWENNRIARDILHRSGGEVLGERFVSIGDTDIDHLIDEVREKRPDFILNNLIGPSSYAFLRAYQALGEADDRFRPEKCPIISCNLYEGEITGLGHAAAGHFTVSCYFRTLQSPENDSFLKTLAALDPGAIVDAFYAQAFSAVVMIAEAIMRCGSDDADLVRGALRGQSVDTPLGAISVDRWTNHVELPAHIGRARADGSFEIVKREGHHHHHH | not soluble
7 | GMTKKTGFFKRLKALTLPQKQLFATALCQRMLPNYQLFSEVCEFGDPAVLSTALELLWQSLYDPKLKFNIDVHLQRLEDNTPEPADFEAYGVYPAMDAVVAISTLLGAIQGKIEEDIVNISKLSSSTVANYIEAISDVDLVDEALDDFVFAHEVMEEEKELQNSLLEIIEENPKITAELVKGLRKDIIETGVSNIGISVA | soluble
8 | MITMPKLFIYHANQCNPKKCTSLKMAKMNKAILLKNPYKVPKNSLILNPYAEKALSPEDKEIVEKFGITALDCSWKEAELMFKKFKFKNQRSLPFLVACNPINYGKPCMLSTLEAFIAALYITNFKDEAWDLTSCFKWAETFIKVNYELLERYSNAKNSMEVVEIQQDFLRKLEHHHHHH | soluble
9 | MGSDKIHHHHHHMDSLGEQPSNRAPVITISSGRYLAQIATYGGGIKSLTYDGRPLVETYPDDAFPPLNAGVVLAPWPNRTDAGAYDFQGQSYQLPITEPDRNNAIHGFVANAVWNIDLIRPARVILSTTIEPQQGWPWAIELAADYLLTDSGLRAQFTATTPHEAVPFGFGWHTYLSAQGAEVDKTTLRVGVDKQWMLDDRNLPTGELVQPTNDVSGGLPMAGKLLDDCFLAERTPVTTVLESQGVGVSMHCSEQFPWFQIFTPDPAWEMPYPGRGRSVAVEPMTTSPNGLNLGIDTIGAASPWHGTITISAYNKHS | not soluble
10 | MAHHHHHHMCLLSFFSLYPLGSFSSGKSNMDTPPISDDDKEVIDRLFASDVPQSLSRHAVLILHYHRTVFGSMVPSNVLLAGCLLYSCKWLSYPSGNSFLKNYFQGMKTSDIVGLEMVLHGTVRQNFMLVEACLRSEMSEIVRLNDVPHNRERIVLVCLNLVRALYRTRWCLLPETAARGALLVACEMCDVHLKSLPESFNTTMVTCAVDYLRSIFAQSRC | not soluble
11 | MAHHHHHHMKHIATQHHRGVVADPQPIHRNTRRAVKVQTRPRDQPRDREAVPADRDVRVRWKITLRAEQRVTKCVTGDDDVQRPHSGVRIAQQQQHGAVPPRASIERDVRHVARHRTNQHRQAHAAPAERHVAVAQPRQPAAHSLRNLGVHHVADALTNRRWRWCGRRWRWRWRRGQWRRASRHRRRDARIAVPSSSALALAANDRRRQRCKAVALLRALPARSNRRHVGDAVELQLCRRRQQTSRDRQAPSNEPVTGVNPR | not soluble
12 | MSLKQERQEKIEVLKEFKDDGATKFSSYYFDLKKNQILSSGSLTTSWRVIDFSEVLSYQVNRNGHLEQKHHGIARAVTGGIMAGGVGAIVGTTTGENTDYIDHLGLVINLSDGTNFEVKFLKTKTKTNSFTVKTAEGELRSLISIVQSGMNKAQEKAEQEQTKANTIKIESNADPAEEIRKFKKMADEGIISNEEFEAKKKQLLNLQEGHHHHHH | soluble
13 | MRGSHHHHHHTDPALRACELLGMSANVPTDICFSFTGLVQRGGGTGPHKDGWGITFYEGKGCRTFKDPQPSFNSPIAKLVQDYPIKSCSVVAHIRQANRGEVALENTHPFTRELWGRNWTYAHNGQLTGYKSLETGNFRPVGETDSEKAFCWLLHKLTQRYPRTPGNMAAVFKYIASLADELRQKGVFNMLLSDGRYVMAYCSTNLHWITRRAPFGVATLLDQDVEIDFSSQTTPNDVVTVIATQPLTGNETWQKIMPGEWRLFCLGERVVGLCGR | soluble
14 | MVLYFIGLGLYDERDITVKGLEIAKKCDYVFAEFYTSLMAGTTLGRIQKLIGKEIRVLSREDVELNFENIVLPLAKENDVAFLTPGDPLVATTHAELRIRAKRAGVESYVIHAPSIYSAVGITGLHIYKFGKSATVAYPEGNWFPTSYYDVIKENAERGLHTLLFLDIKAEKRMYMTANEAMELLLKVEDMKKGGVFTDDTLVVVLARAGSLNPTIRAGYVKDLIREDFGDPPHILIVPGKLHIVEAEYLVEIAGAPMEILRVNV | soluble
15 | MIAGATAPSSQHEILIASNLIKKPSTSQNKTPTAQSSSGNNGAADGAPQGYHHHHHHHRHLWWPRTTDHQYWCVLRKNQFAYYKTRDEREAISVIPRFDILNFKISELDGILTVYTPSKDLIFKFPRGQNEKVGMELMHNWKIALEKFLSSPSGNESVTTGSDYDEEEDDDDLIVVDEKAGPSSSKHSCSLTMDEQLSREDKEFYRMFDPRNAEHQVCSGILYTKVKKKKLFNRAKWQKFNVELTNTSFNLYSFKTGKLKKSIKLDKIIDCIELDNNSKMKNDDTNFALITFDERLSFKAANDQDMVDWIINFKSGILIRKKLKAENI | soluble
